{"source": "patent US20250277050A1", "about": "(MEDICAL COLLEGE OF WISCONSIN, published 2025)", "key": {"[1]": {"molecular_target": "T1, human CD30 expressed on the cell surface (human, UniProt P28908 19-595)", "T1 construct": "whole, on cells; also called huCD30; cell-surface expressed CD30", "T1 sequence (looked up)": "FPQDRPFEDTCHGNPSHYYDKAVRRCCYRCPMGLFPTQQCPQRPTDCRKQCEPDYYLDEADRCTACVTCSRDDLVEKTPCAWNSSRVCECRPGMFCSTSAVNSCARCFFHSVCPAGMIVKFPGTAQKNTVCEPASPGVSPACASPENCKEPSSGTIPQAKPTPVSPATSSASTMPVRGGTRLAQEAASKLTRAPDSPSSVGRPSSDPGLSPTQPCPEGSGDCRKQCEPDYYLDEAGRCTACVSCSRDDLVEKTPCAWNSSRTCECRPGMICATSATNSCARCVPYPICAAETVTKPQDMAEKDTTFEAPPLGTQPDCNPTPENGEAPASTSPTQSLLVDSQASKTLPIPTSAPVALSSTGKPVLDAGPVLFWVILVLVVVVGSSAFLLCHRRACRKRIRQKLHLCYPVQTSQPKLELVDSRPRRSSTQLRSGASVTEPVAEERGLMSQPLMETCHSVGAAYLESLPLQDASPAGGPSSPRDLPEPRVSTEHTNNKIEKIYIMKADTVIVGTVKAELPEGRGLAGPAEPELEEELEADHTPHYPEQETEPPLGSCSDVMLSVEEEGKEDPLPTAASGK", "test": "flow cytometry, purified antibody on cells with CD30 surface expression"}, "[2]": {"molecular_target": "T1, human CD30 expressed on the cell surface", "test": "flow cytometry on CD30+ and CD30- cell lines", "method": "Flow cytometry analysis was preformed using purified antibody on CD30+ cell lines (SU-DHL-1, RPMI6666, […]) and a CD30− cell line (OCIAML2). A commercially available α-huCD30 antibody (clone BY88) and an isotype control were also tested.\nWe have employed hybridoma technology to generate novel murine anti-human CD30 mAbs. Mice were immunized and boosted with purified human GST-tagged CD30. Mouse spleen cells were then harvested and fused with myeloma cells to generate antibody secreting hybridoma. Hybridoma supernatants were screened for specificity to purified CD30 protein by ELISA, and GST specific clones were eliminated. […] Specific binding of our mAbs to cell-surface expressed CD30 was assessed by flow cytometry (FIG. 1) using 293T cells (CD30−), lentiviral transduced 293T cells expressing huCD30, and K562 cells which are naturally CD30+. The 293T (CD30−), 293T LV huCD30 (transduced with human CD30), SU-DHL-1 (lymphoma), RPMI.6666 (lymphoma) or K562 (CML) cell lines were incubated with each antibody in the form of unpurified hybridoma supernatant, and then incubated with an Alexa Fluor 647-labeled anti-mouse IgG antibody. Cell-associated fluorescence was determined by FACS."}}}
{"binder": "15B8 (antibody, V domains shown, Murine anti-human CD30 monoclonal antibody from a hybridoma, detected with anti-mouse IgG; also called monoclonal antibody 15B8) VH: QVQLEQSGTELVKPGASVKLSCKASGYTFTSYWMHWVKQRPGQGLEWIGNINPSNGGTNYNEKFKSKATLTVDKSSSTAYMQLSSLTSEDSAIYYCARRNNYYASSPFAYWGQGTLVSVSA VL: DIVMTQTPASLSASVGETVTITCRASGNIHNYLAWYQQKQGKSPQLLVYNAKTLADGVPSRFSGSGSGTQYSLKINSLQPEDFGSYYCQHFWSTPFTFGSGTKLEIK", "values": [{"measurement": "binding result", "setting": "[1]", "value": "binds"}]}
{"binder": "12B1 (antibody, V domains shown, Murine anti-human CD30 monoclonal antibody from a hybridoma, detected with anti-mouse IgG; also called monoclonal antibody 12B1) VH: EVKLEESGTELVKPGASVKLSCKASGYTFTSYWMHWVKQRPGQGLEWIGNINPTNGGTNYNEKFKSKATLTVDKSSRTAYMQLSSLTSGDSAVYYCARRDFITTSGFAYWGQGTLVTVSA VL: DIVMTQTTASLSTSVGETVTITCRASGNLHSYLTWYQQKQGKSPQLLVYNAKTLADGVPSRFSGSGSGTQYSLKIDSLQPEDFGSYYCQHFWTTPFTFGSGTKLEIK", "values": [{"measurement": "binding result", "setting": "[2]", "value": "binds"}]}
{"binder": "13H1 (antibody, V domains shown, Murine anti-human CD30 monoclonal antibody from a hybridoma, detected with anti-mouse IgG; also called monoclonal antibody 13H1) VH: QVQLQQSGTELVKPGASVKLSCKASGHTFTSYWMHWVKQRPGQGLEWIGNINPSNGGTNYNEKFKSKATLTVDKSSSTAYMQLSSLTSEDSAVYYCARRGYYGSSSYWSFDVWGTGTTVTVSS VL: DIVMTQTPKSMSMSVGERVTLSCKASENVGTYVSWYQQKPEQSPKVLIYGASNRFTGVPDRFTGSGSATDFTLTISSVQTEDLADYHCGQSYSYPLTFGAGTKLELK", "values": [{"measurement": "binding result", "setting": "[2]", "value": "binds"}]}
{"binder": "10C2 (antibody, V domains shown, Murine anti-human CD30 monoclonal antibody from a hybridoma, detected with anti-mouse IgG; also called monoclonal antibody 10C2; anti-CD30 mAb 10C2) VH: QVQLEQSGPVLVKPGASVKMSCKASGYTFTDYYMNWVKQSHGKSLEWIGVINPYNGGTSYNQKFKGKATLTVDKSSSTACMELNCLTSEDSAVYYCTLGAYWGQGTSVTVSS VL: not shown", "values": [{"measurement": "binding result", "setting": "[2]", "value": "binds"}]}
{"binder": "8D10 (antibody, V domains shown, Murine anti-human CD30 monoclonal antibody from a hybridoma, detected with anti-mouse IgG; also called monoclonal antibody 8D10; anti-CD30 mAb 8D10) VH: QVQLQESGTELVKPGASVKLSCKASGYTFTSYWMHWMKQRPGQGLEWIGNINPSNGGTNYNEKFKNKATLTVDKSSSTAYMQLSSLTSEDSAVYYCARRDYYYGSSYGFDVWGTGTTVTVSS VL: DIVMTQSPASQSASLGESVTITCLASQTIGTWLAWYQQKPGKSPQFLIYAATSLADGVPSRFSGSGSGTKFSFKISSLQAEDFVSYYCQQLYSTPFTFGGGTKLEIK", "values": [{"measurement": "binding result", "setting": "[2]", "value": "binds"}]}
